Measurements as given in patent US6492344B1, “Syndecan enhancer element and syndecan stimulation of cellular differentiation” (Biotie Therapies Corp., priority 1993, dated 2002).

Assays:
[1] = test system: nuclear factors binding FiRE motifs 1-5; format: cell-based, mouse
Method: The Enhancer Comprises Five DNA Binding Motifs. Plasmid pFiRE was end-labeled using Klenow fragment and […]. DNAse I footprinting was performed with labeled pFiRE vector alone (naked), together with FGF-induced nuclear extracts (FGF-2), and together with non-induced nuclear extracts (control). To obtain nuclear extracts, NIH3T3 cells were plated on 16 cm dishes and treated with or without FGF-2 for 1 day. Nuclear proteins were extracted using a modification described by Lee et al., Gene Anal. Techn. 5:22-31 (1988). Protein concentrations were measured by the Bradford method.
In a 12 μl reaction, 5 μg of the nuclear extracts were incubated with labeled oligonucleotide, 2 μg of poly-d[I-C] and 2×reaction buffer, i.e., […], pH 7.5; 100 mM NaCl; 2 mM EDTA; and 10% glycerol for 15 minutes at room temperature. Non-labeled competitor oligonucleotides were used at 100-fold molar excess. The complexes were analyzed by electrophoresis in a 4.5% polyacrylamide gel. For supershifts, 0.1 μg of specific antibody was added to the reaction 15 minutes before the labeled oligonucleotide. […]
These motifs was further analyzed by competing the binding of nuclear factors with a molar excess of specific (s) and non-specific (ns) oligonucleotides. […] The resulting complexes were analyzed by the gel retardation analysis described above. […]

[2] = test system: syndecan-1 enhancer element (pXb6); assay: CAT reporter assay of syndecan upstream fragment pXb6 in 3T3 NIH cells; format: cell-based, mouse; conditions: 3T3NIH cells transiently transfected; FGF-2 alone
From the text: Determination of Mouse Syndecan Promoter and Enhancer Activities. The mouse syndecan-1 gene has been cloned and characterized up to −10 kbs upstream from the transcription start site. To determine the specific activities of different proximal promoter regions (up to −2 kbs from the start site) and enhancer regions (from −2 to −10 kbs) we have made plasmid constructs in which these regions were cloned into pCAT basic or pCAT promoter vectors, containing the CAT reporter gene. The reporter CAT gene produces the enzyme chloramphenicol acetyltransferase, which transfers the n-butyryl moiety of n-butyryl CoA to chloramphenicol. […]
The plasmid constructs were transiently transfected into eukaryotic cells by calcium phosphate precipitation simultaneously with a β-Galactosidase expressing vector to determine transfection efficiency. […] This was incubated from 2 hours to overnight and the color reaction was measured spectrophotometrically at 420 nm.
CAT activity was determined by adding 0.25 M Tris buffer, 25 ng n-butyryl CoA and 0.0626 μCi of ^14C-chloramphenicol to the cytoplasmic extract. Samples were incubated overnight, extracted with xylene and the radioactivity present was measured by scintillation counting. CAT activity was corrected for transfection efficiency as determined by assays of β-galactosidase activity. […]

In the case of “FGF-2: Basic fibroblast growth factor (FGF-2 or bFGF); recombinant human”, the “nuclear protein binding to motifs 1 and 2” value [1] is reported as “do not show binding to an FGF-2 inducible factor”, the “nuclear protein binding to motifs 3, 4 and 5” value [1] is reported as “bind at least one specific FGF-2 inducible nuclear protein” and the “CAT gene expression from plasmid pXb6” value [2] is reported as “increase in CAT gene expression”.
